Laboratory results from the DeepSol protein solubility set.

Assay: soluble on expression in E. coli; label from the status in PepcDB or PDB records

Sequence | soluble on expression in E. coli
MGSDKIHHHHHHMTFKNDVDGCSYPGILSASRSTDIPAFYAEWFSRRLRDGYVVWKSPFNQKCYSVCFEKAGGIVFWTKNPKPLMPFLDEVSELGYDYYFQFTVNDYESEGFEPNVPPLDERIETFRSLSQKLGKERVIWRFDPICLTRELDVEGIMARLRSIGECLKGYTEQLVISFVDVHAYTKVQRNIKTADGFCLREPSMEEQDELARRISSYAKEIGVSPSACGERRSFAHFGILPNKCIDGELFKRICRKGNIKLQKHLGTYIDQYSLLSPQKKDVTLCKDKGQRKECGCVESKDIGMYNTCNHMCVYCYANTSQRVVEKNRVLHDVNGESLIPTSRTVEE | not soluble
MIKIVTDNFLYEKEKVLALRYMYDSAKKPGITIITVTNKQKYIKNIMDNFRRCLYPKKEFIIILNDTKLQTSLYKNYFSKTKNLKLFKVDSSYSLGECLNLAISKSNYNYIAKMDDDDYYGSHYILDSMNAFNYTDASIIGKATHFIYFEDRTLLNLWCQGNENTYATSVAGATFVMKKSIFNKVKFNSLNNGEDIDLLSQCNNLGIKIYSCSKFNYVYNRHASPDNHSWKISNDLLVKRSIKLCITKSYKRIVHILEHHHHHH | not soluble
MADYLLEIGLEEIPAHLVTESENQLIERIKNFFSDNLLDYKKIQTFSTPRRLAVLVHDLSNYSQSKDEELRGPSLKVAKDESGNWSRAAEGFARSQGTSPAEFDERDGYVYLNKHIEGVSAEEILKKIGIEVVEKMKFSTYMKWADFKLEYVRPIRWLVSLLDSKIVPFQILDVKADRFTRGHRFLSGGKISISEAGDYEETLNNAYVIVDAKVRKNSIRNQIRKIADTNDWNLHVDPDLLEEVNNIVEYPTAFAGVFDDKYLNLPEIVLTTSMRDNQRFFYVTNKQGKILPHFISVRNGDSNQIENVVKGNEKVLVARLEDAEFFFEEDQKHNIDFFMKKAERLVFHEKIGTMTEHMKRVEKIAALLANQLAFNDQEKKDLKRAANICKFDLTTAMVGEFAELQGTMAGIYAKIFGENQTVCQALSEQYLPTSSEGDLPKSKVGAMLALADKLDTLFSFFAAGIIPSGSNDPYGLRRAALGIVRIIGQQKWNFSVSKLLHSLKTAVDKHEDGFLIDFADTKEISRKVIEFFLDRIRQQSSDIRYDLLDASTGKVNEGIINY | not soluble
MSLSIAKNIENDPSKGWVVQKFGGTSVGKFPIKIAVDVAKEYLSTKRVALVCSARSTDTKAEGTTTRLIRATEAALRPAVGSVHDLVRIIETDHVQAARDFIQDVGIQDELIDAFHADCVELEQYLNAIRVLSEVSPRTRDLVIGMGERLSCRFMAAVLKDQGIDSEFIDMSHIIDEQREWRNLDASFYAYLASQLASKVTAVGNKVPVVTGFFGMVPGGLLSQIGRGYTDFCAALLAVGLNADELQIWKEVDGIFTADPRKVPTARLLPLITPEEAAELTYYGSEVIHPFTMSQVVHARIPIRIKNVGNPRGKGTVIFPDTISRHGSATPPHPPKIMPDDISASLANKGATAVTIKDTIMVINIQSNRKISAHGFLASIFAILDKYKLAVDLITTSEVHVSMALYEESDDGNMHEAFVELRRLGTLDILHGLAILSLVGKHMRNTTGYAGRMFCKLAEAQINIEMISQGASEINISCVIDEKMAVKALNVIHKELLEPLALHEVPSQASMLVEKPWLYSAEGHHHHHH | soluble
MTKYRLHYFNARGYAEASRAMFHMAGVEFEDVRYEIDDWIKEENTLKNEMPFGQMPVLEVDGEKIPQSVAIARFVANQLGFAGQTPVEKAWADAFTDLYKDFLIDMKPWAMIAFGYPGAAGDRDELKKTSLDPAKEKYFKLLSKRLEKSKSGFLLDSGISFPDLFFFETTTSLIELEKGFLGTDFPVVNAYFKRIAEHPKLKPYLETRPYSSK | not soluble
MILREFCAENLTDLTRLDKAIISRVELCDNLAVGGTTPSYGVIKEANQYLHEKGISVAVMIRPRGGNFVYNDLELRIMEEDILRAVELESDALVLGILTSNNHIDTEAIEQLLPATQGLPLVFHMAFDVIPKSDQKKSIDQLVALGFTRILLHGSSNGEPIIENIKHIKALVEYANNRIEIMVGGGVTAENYQYICQETGVKQAHGTRITQMAGDPLEHHHHHH | soluble
MKDLDFSKKPLIGVVHLKPLPGSPRYGGDFEEVIEWAIRDAKTYEEAGFDGIIVENFGDSPFSKTLPREVIPAFTVVAKAVKKEVSLPLGINALRNDCIVAYSIAHAVGGSFIRVNVLTGVAFTDQGIIEGCARELWNVKRIIGGDILTLADVHVKHAVHFTNFEDAVKDTVERGLADGIIVTGRRTGESISLEDLILAKRVSSIPVLVGSGVNPRNFRTLFKYADGFIVGTWVKENGKINNPVSLERAKILVRMKNSLMGVLEHHHHHH | not soluble
MGSDKIHHHHHHSDLNSNIKDDPYSGGKAPLGIGLLAESPSPESAYPNDTVVFKAKGMLNWCDPQSGRYDFKFYISDEETKIVTATDTTITVKVPGNLSSGTAYIVLKEQVFYGPRLTVLGNIKIDQSYGFKGTSGPIYDCAEHYSKARVYYPVGDYMQAYYNENSSQSFSCISMVLTDGSVSGKWVTDFKLDPGQGAGIDLANPGVTDIECYLNSFTYFPSDHRVLLSGKFSEYGWDKLPVNNITIATNEVASYYKTVALPSKKNNTSINCKIPVFNGGTLEAPVRTFITSNEKVVAVGNITNYCRINTEKSYAESMVLDYSKVASVLRMSRTGELDDSYRRDAEGVIGQILDACMVESDGIVIVGTFSSFDGQSVKNIVKLNAEGTLDETFMKNIGTGANGSITKIRYNKNKKKILITGEFSEFNGIPAQSVVMLNDDGTRDEIFKIGKMEGGLANFACLLDNDNIVVSGAFTKYDGVTRRGFLILGRDGKALQQFNVPGIFQGELYKVIETRTSTNSNGLLLLGDFSRFDGNMVRNAIMIEVDYE | not soluble
WYGSPQFDGKYVHWDHPLLPHWDPKVASSYSTGRHQPPEDIGANFYPALGPYSSRDPAVLEEHMRQLRMAAVGVLAVSWYPRSMKDDNGEEIDSLLPLILDAADKYQLKVLYNLYVFKNVICINKYV | soluble
MSLKGIVFGSGQIGSSVALNLVDGMDVTVADRDPTNLRKIQDNIGSRVSVIQVDALRDDIKHIISDYDIVVSALPGSVGFQFAKSIAPFGVRMIDISYYEDDVFLLDDVAKKSSSVIVPDIGFAPGISNVLVGHFSYELEDVKDVHIYVGGIPEKRIGGLDYVITWSVEGLLDEYTRPVHIVQNGSITQVEPLSGLEKINIQKYTDLEAFYTDGLRTLGKTIRASGSMWEKTVRYSGHAEKIRLLKDLGFFSRKKVKVGNSEIAPFDFTAEIFRNNLSMSGVKDVSLMYVKVTGTRNGDIVKHEASMVAPYDEKRKRSSMANVTSVPASATADFLSKNEIGKYGVVAPEILGKDENFYKQFINYLGQYGIIISEGHHHHHH | not soluble
RPLTGLVMTGGGARAAYQVGALSAIMAILDPKARPGYPNPFPIICGTSAGAVNAAALACRADRPHLAVRRMRRLWASLETGMVYRADAPGLIRTGVRWLGLLSLGWMYAGLTRKRPQSLLDSSPLADLLGRVMDFDRMRHNLARGKLSALAITASGYTSGEHLTFYQSDRPIDPWHRFLRRAVPSAIGIDHIMASSAIPFVFPARPVRVHGQVEWCGDGSMRQLAPISPAIHLGATRVLVIGTGFHDDTHPEKREEDPPYPSLAQVGGHALSSIFLDGLSMDVERLERTNFLLSRGGQEAEPEFALRRVDVLALTPSQSLDQLALEHLDDMPSEARTLFRV | not soluble
MAHHHHHHMRIHAPPYPFFNFLFLCFHTEPRRIPRRTVSYTQVVPASIFHGMADRALTCVRPAAYFLPGDRASSFLSSGAILLFEERVCTPHKASESTVCPVAGHSKVFAPSCYVEPFSIIEVALEERRNRVGRMSWCFRLFAIKLRGGNPTQFPPPASSVEHVQV | not soluble
MSLSIISQIEACDFERLYEIEQQAHLVPWSFGTLKNNQGERYLNLKLIENNQIIGFAICQTVLDEATLFNIAILPTYQGCGFGKLLLGKLIFQLKEKGVQTLWLEVRESNSARFLYEKIGFNEVDIRKNYYPKPSGGRENAVVMACYLEGHHHHHH | not soluble
MANFIIELSADESFNIVINDLKPIETYRVEMFLSDYYCINAPMRLAHDVLWKSTATFVSDTNGIINISQTPSCSGSYEGISTMGLFFNAKPLTNKRKKLPNSISKIPLLDHFFVGIKIMQGNTVIAERTFTRHYMSSQISHQDIYGKHFQGRLFYDKKAIKTPSIDYCER | not soluble
GLGGEPVIVYADRGRSVIAAVEGRVEDLVRGDMIVVQADSNGEEVVYIASSPTEPPEVYRFKGGDVERVSSINRWVVEEFRLYKPRRVEVEAEGEVVEGWYIEPEGEGRKPLILFIHGGPKGMYGYGFYGEMQLFASEGFTVAYANPRGSDGYEEEFADIRGRYGDTDYKQLMKFLDAVVEGSDVDEGKMAVTGISYGGYMTNVIVTKTSRFRAAVSENGIADWIADFWAADIGYWFDPDQIGGTPLDNLEEYVKRSPAFHAKNVNTPVMLIHSMEDYRCFIDQALAMHTALKVNGKESFLVVFTKGSHGHSILASPRHRRKRLELKLKWIKEKLG | not soluble
MSLFKKNFDIKDDRNLTMLVDFYELTMGNGYLNKNVGNKTAYFDMFFRRVPDNGGYCIMAGVQQLTEYLSNLRFTKEDIDYLRSKHEFSEEFLSYLKDFKFECDVWAVPEGNPVFPNEPLVTVKGPAIQAQFVETMILLTINHQTLIATKANRICRAAGNRPVMEFGSRRAQGYDGAIYGARAAVIGGCSSTACTISEQMFGVNAVGTMAHSWVQLFDNEFEAFKAWADVYPENCVLLVDTYNVLKSGLPNAIKVFDEVLKPKGIRPSGIRIDSGDITYLTKKCRKILDEAGYSDCKIVISNSLDEHIITDVLLQGAEVDSFGVGERLITAKSEPVFGGVFKLCAVENDEGNIVPKIKISENQEKITNPGFKKIYRLFDKETDKALADLITLNDEVIDETKPLEIFDPIYTWKKKKLTHYYVKDLRVQLFKKGELVYENPEVLEIRNIAKKETEKLWAEVLRLENPHTYYVDLSKKLWDLKHNLLEKYSNAEGHHHHHH | soluble
MKYIIIGLGNYGHVLAEELSTLGHEVIGADLDEGRVDSIKDKIATAFVIDATDEQSLSVLPLNSVDMVIVAIGENFGASIRVVAMLKQKQVKHIYARAIDGVHKAVLEAFGLEKILTPEEDAARSLVQLLDFGTKMETFRVDSEYYVVKFNVPEKFVGYFVNELNLDEEFNLKLIGLKRSNTIKNCLGISLVEHKVVNELPEDAKIRPDDVLVCYGKYSDFQKLWKALLEHHHHHH | soluble
MPNNETEASMRNTLFPTLKWSLLVLMTSLLTACGFHLRGDYDIPQELSRMSLTSYDQYSTFTRMVHRQLRLNKIDLQAPAEDLPNLHLLSESTGERTLSLYQNTRAAEIELTFVASYRVTVPELGSRTFTTSVTRSYLDNPLTALAKSVERDMIEDEMRKLAASQIVRQMARLKADFARKTLDDESIEGKGITDYRVDTQEVANPVSTEGSSELEHHHHHH | soluble
GPGSMYARYRTRSRFYKRPEKMLKAYNVSPNLLRLPKVKPGLLKGIYTDEKIDLRDRERLELVESIRHPKERDFYQDHTYHNQWIARDLESHQKIQIAGRYPYFSPDYEIKPWIWYPGDTVEVVSGEGAGQRGAIIAVVKYKNEILVQNVNVQDVVIPASETRPEQVVQREHPISVLRVRHVDPSTNQLCHLEIVKVRNKETGELEERRISLESGALLPIPAPEETVEAGDPLKDTAIQDADEETYDREKEMPLLVVRRLQAMENYFVDSLQKSHEYHKALQMRNAQDMQTFQKDVLVRATEKLAAAAAVFGHGAMAEAGSQAASVASESSQAGDAEEDAVKGTITVETVVAEVLKSEQRFRSDAAAPGVPGWWQNMIDAYVSVLEEEEATIEAEAAAQAQAAEADRRAEQLMADATAEVGQSMEEDGTMEGGDEDLDEQDGDLDEDSSRSDRSK | not soluble
MAHHHHHHMDGEALFNHIASCSETGYLTMEDFVRWMSETATDKGQKNYESIDVDERAVMRKALLQLCERLEARCLNSLQMFRLASTMPRAYTERRADIYSLANPHRDALVTPVQLRRCIEEVLGGNPSPREMDALLSFFFPQLPLEEYRSRRDGDLEHALDLKAFQKKYHEMNKLLMLSEPSKQQQQTQQRQQE | soluble
